Data from patent US20150111246A1, “SITE-SPECIFIC ENZYMATIC MODIFICATION OF EXENDINS AND ANALOGS THEREOF” (priority 2012, published 2015).
Bridge positions count the residues as written; N and C are the ends. Peptide text beside a SMILES is read from it. * marks the point of attachment. NH(mPEG24) = COCCOCCOCCOCCOCCOCCOCCOCCOCCOCCOCCOCCOCCOCCOCCOCCOCCOCCOCCOCCOCCOCCOCCOCCN*

What was measured:
GLP-1 receptor [1] = molecular target: T1, GLP-1 receptor (Rattus norvegicus, UniProt P32301); assay: GLP-1 receptor binding displacement assay; details: text of Examples 6, 7, 12
T1 construct: endogenous in cells; host or cells: RINm5F cell membranes
T1 sequence (P32301 22-463): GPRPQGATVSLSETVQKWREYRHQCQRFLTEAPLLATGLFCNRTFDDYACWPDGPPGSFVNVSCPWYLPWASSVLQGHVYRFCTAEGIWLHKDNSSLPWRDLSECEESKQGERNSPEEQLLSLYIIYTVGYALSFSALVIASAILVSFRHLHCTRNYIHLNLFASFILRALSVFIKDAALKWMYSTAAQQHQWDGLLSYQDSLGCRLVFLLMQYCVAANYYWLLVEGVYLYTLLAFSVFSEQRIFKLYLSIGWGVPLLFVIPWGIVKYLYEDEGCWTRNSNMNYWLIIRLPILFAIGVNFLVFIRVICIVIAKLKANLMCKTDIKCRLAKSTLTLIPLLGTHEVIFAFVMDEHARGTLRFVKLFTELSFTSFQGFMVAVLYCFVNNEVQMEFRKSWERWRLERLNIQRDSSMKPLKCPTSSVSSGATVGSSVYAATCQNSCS
Method: GLP-1 receptor binding and functional assays: GLP-1 receptor binding activity and affinity may be measured in any number of known methods. […] Reaction mixtures are filtered through glass filter pads presoaked with 0.3% PEI solution and rinsed with ice-cold phosphate buffered saline. Bound counts are determined using a scintillation counter. Binding affinities can be calculated using GraphPad Prism® software (GraphPad Software, Inc., San Diego, Calif.).

GLP-1 receptor [2] = molecular target: GLP-1 receptor (UniProt P32301); assay: cell-based or functional assay
GLP-1 receptor [3] = molecular target: GLP-1 receptor (UniProt P32301); assay: radioligand displacement, RINm5F cell membranes, [125I]GLP-1 (or exendin) tracer
GLP-1 receptor [4] = molecular target: T2, GLP-1 receptor (UniProt P32301 22-463, limits assumed); assay: cell-based or functional assay
T2 sequence (looked up): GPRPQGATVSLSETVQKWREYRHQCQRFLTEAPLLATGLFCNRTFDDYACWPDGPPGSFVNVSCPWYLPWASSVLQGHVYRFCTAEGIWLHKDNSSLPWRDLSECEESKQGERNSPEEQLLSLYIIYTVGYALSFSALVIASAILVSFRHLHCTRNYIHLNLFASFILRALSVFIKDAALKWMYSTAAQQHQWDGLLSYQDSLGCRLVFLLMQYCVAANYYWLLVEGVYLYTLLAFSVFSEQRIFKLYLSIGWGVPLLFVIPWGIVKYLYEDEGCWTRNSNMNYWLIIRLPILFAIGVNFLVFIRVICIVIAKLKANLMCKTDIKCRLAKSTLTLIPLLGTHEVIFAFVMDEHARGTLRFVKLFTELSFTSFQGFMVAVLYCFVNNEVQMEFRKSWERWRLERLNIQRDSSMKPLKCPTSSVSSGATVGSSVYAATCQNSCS

GLP-1 receptor, P32301 = molecular target: T3, GLP-1 receptor, P32301; assay: GLP-1 binding assay (radioligand displacement), as the filing names it
T3 chain: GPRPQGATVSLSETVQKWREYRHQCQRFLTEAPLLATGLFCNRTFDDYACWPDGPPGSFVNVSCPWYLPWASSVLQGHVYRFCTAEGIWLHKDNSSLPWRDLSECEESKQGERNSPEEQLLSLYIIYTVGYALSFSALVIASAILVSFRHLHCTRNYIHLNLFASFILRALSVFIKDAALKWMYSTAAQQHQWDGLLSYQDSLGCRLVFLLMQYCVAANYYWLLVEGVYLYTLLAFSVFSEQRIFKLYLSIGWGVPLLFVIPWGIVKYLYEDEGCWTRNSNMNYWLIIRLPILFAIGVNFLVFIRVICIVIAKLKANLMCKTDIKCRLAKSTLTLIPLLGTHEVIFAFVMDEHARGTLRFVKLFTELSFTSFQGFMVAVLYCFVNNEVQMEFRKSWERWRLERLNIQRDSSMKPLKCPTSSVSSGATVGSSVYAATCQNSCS

## CC[C@H](C)[C@H](NC(=O)[C@@H]1CCCN1C(=O)CNC(=O)[C@H](Cc1ccccc1)NC(=O)[C@H](CC(N)=O)NC(=O)[C@H](CC(N)=O)NC(=O)[C@H](CO)NC(=O)[C@H](CO)NC(=O)[C@H](Cc1c[nH]cn1)NC(=O)[C@@H](NC(=O)[C@H](CC(C)C)NC(=O)[C@H](Cc1ccccc1)NC(=O)[C@H](CC(N)=O)NC(=O)[C@H](C)NC(=O)[C@H](CC(C)C)NC(=O)[C@H](CCCNC(=N)N)NC(=O)[C@H](CCC(=O)NCCOCCOCCOCCOCCOCCOCCOCCOCCOCCOCCOCCOCCOCCOCCOCCOCCOCCOCCOCCOCCOCCOCCOCCOC)NC(=O)[C@@H](NC(=O)[C@H](C)NC(=O)[C@@H]1CSSC[C@H](NC(=O)[C@@H](N)CCCCN)C(=O)N[C@@H](CC(N)=O)C(=O)N[C@@H]([C@@H](C)O)C(=O)N[C@@H](C)C(=O)N[C@@H]([C@@H](C)O)C(=O)N1)[C@@H](C)O)C(C)C)C(=O)N[C@@H](CC(C)C)C(=O)N1CCC[C@H]1C(=O)N1CCC[C@H]1C(=O)N[C@H](C(=O)N[C@@H](CC(N)=O)C(=O)N[C@H](C(=O)NCC(=O)N[C@@H](CO)C(=O)N[C@@H](CC(N)=O)C(=O)N[C@H](C(=O)N[C@@H](Cc1ccc(O)cc1)C(N)=O)[C@@H](C)O)C(C)C)[C@@H](C)O [Example 12] (H-KCNTATCATE(NH(mPEG24))RLANFLVHSSNNFGPILPPTNVGSNTY-NH2; disulfide 2-7; N-terminus and C-terminus assumed)
GLP-1 receptor [1]
  IC50: 80 nM

## Exendin-4 (peptide)
GLP-1 receptor [2]
  GLP-1 Function ED50: 0.003 nM
GLP-1 receptor [3]
  IC50: 0.333 nM

B1: [des-^1H, ^2G(imidazoacetyl), ^13N, ^14L]-Exendin-4-^40Q biotin cadaverine amide adduct attached at ^40Q (MW 4564.46) (peptide)
peptide: GEGTFTSDLSKNLEEEAVRLFIEWLKNGGPSSGAPPPSQ
modifications: imidazoacetyl on Gly 2 in place of His 1; biotin cadaverine amide on the side chain of Gln 40
GLP-1 receptor [4]
  EC50 in the GLP-1 functional assay: 0.004 nM

## KCNTATCATQRLANFLVHSSNNFGPILPPTNVGSNTY (modifications not checked) [Pramlintide pegylated with m-dPEG24 amine at the glutamine at position 10]
GLP-1 receptor, P32301
  IC50: 80 nM
